The values that follow come from doi:10.1101/2021.03.11.435015.

The test has as its target Myc-PUM1-R1147W (human) (UniProt Q14671). Put plainly: co-IP.

In turn, “GST-CNOT1 (from UniProt A5YKK6 1-2376) (natural protein)” gave a percent by which the interaction is diminished against Myc-PUM1-WT of 35%.
